The target of this experiment is CBX5^MBD chimera (CBX5 in which the chromodomain was replaced by the MeCP2 methyl-DNA binding domain) (UniProt P51608).

Here are results for 1 substance from article PMC11723951.

Regarding “KMT5C heterochromatin retention domain (HRD), wild type, fluorescent fusion (domain or fragment)”, the chromocenter partition coefficient of the HRD in Suv39h1/2 null MEFs upon CBX5^MBD co-expression (1.33 without it; 11.54 in wild-type cells), live-cell imaging was determined as 4.43.
